Experimental data as given in patent US20250257130A1 (NONA BIOSCIENCES SUZHOU, published 2025).

B1: PR303125 (antibody, human IgG1, V domains shown)
VH: EVQLLESGGGLVQPGGSLRLSCAASGFTFSSHAMSWVRQAPGKGLEWVSAISGSGDSTHYAASVKGRFTISRDNSKNTLYLQMNSLRAEDTAVYYCETLLRFLESLGNDGFKIWGQGTMVTVSS
notes: HCAb (heavy chain-only, human IgG1 Fc), no light chain
B2: PR303191 (antibody, human IgG1, V domains shown)
VH: EVQLLESGGGLVQPGGSLRLSCAASGFIFGSYAMSWVRQAPGKGLEWVSGISGTGGNTYYADSVKGRFTISRDNSKNTLYLQMNSLRAEDTAVYFCERGITIHGVVIIPPDYRGQGTLVTVSS
notes: as for B1
B3: PR000374 (antibody, human IgG1, kappa, V domains shown)
VH: EVQLVESGGGLVQPGRSLRLSCTASGSDINDYPITWVRQAPGQGLEWIGFINSGGSTWYASWVKGRFTISRDDSKSIAYLQMNSLKTEDTAVYYCARGYSTYYRDFNIWGQGTLVTVSS
VL: DIQMTQSPSSLSASVGDRVTINCQASQSIDSNLAWFQQKPGQPPKLLIYRASNLASGVPDRFSGSGSGTDFTLTISSLEAEDVATYYCLGGVGAVSYRTSFGGGTKVEIKR
notes: positive control; also called Bench marker 1

Key:
[1] = molecular target: T1, Human ROR1-ECD-his (Acro Biosystems RO1-H522y) (human, UniProt Q01973 30-406); experiment: ELISA, plate coated with hu-ROR1-his at 1 µg/mL
T1 construct: extracellular domain; bought protein; also called hROR1-ECD-his; hu-ROR1-ECD-his
T1 sequence (Q01973 30-406): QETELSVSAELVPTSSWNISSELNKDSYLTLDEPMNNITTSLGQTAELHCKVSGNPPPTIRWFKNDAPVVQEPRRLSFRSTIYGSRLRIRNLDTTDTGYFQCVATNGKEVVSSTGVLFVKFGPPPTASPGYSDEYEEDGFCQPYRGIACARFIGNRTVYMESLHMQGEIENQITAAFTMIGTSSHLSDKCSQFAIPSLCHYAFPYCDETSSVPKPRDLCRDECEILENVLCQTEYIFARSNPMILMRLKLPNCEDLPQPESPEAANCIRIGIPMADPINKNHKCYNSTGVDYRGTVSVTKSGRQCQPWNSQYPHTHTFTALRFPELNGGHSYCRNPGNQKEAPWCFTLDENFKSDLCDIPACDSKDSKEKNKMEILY
Experimental: Binding of recombinant anti-ROR1 antibodies to hu-ROR1-ECD-his was tested by ELISA. In brief, 1 μg/mL hu-ROR1-ECD-his was added to the 96-well plate, 100 μL each well, incubated at 4° C. overnight, washing the plates with 1×PBST 3 times, 300 ul/well, blocking the plates with 2% BSA in 1×PBST, 200 ul/well at 37° C. for 1 hour, anti-ROR1 antibodies were serially diluted in staining buffer (PBS containing 2% BSA). Antibody solution was added to the plate and incubates at 37° C. for 1 hour, washing the plates with 1×PBST 3 times, 300 ul/well, adding secondary antibody 100 ul/well and incubate at 37° C. for 1 hour, washing the plates with 1×PBST 3 times, 300 ul/well and then add 100 ul/well TMB for about 5 min, stop the reaction by adding 100 ul/well 2M H₂SO₄, read the plates with Molecular device spectra max plus384 at 450 nm and 570 nm.

[2] = molecular target: T1, Human ROR1-ECD-his (Acro Biosystems …); experiment: BLI, ROR1-His on HIS1K sensor, antibody in solution
In short: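 His-tagged ROR1 (20 nM) captured on HIS1K biosensors; serially diluted antibodies in kinetics buffer as analyte. Association and dissociation rate constants measured by Octet biolayer interferometry, sensors regenerated with 10 mM glycine-HCl pH 1.5 between cycles.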

[3] = molecular target: T1, Human ROR1-ECD-his (Acro Biosystems …); experiment: BLI in-tandem competition; competitor: PR303201
Text: (§1) To determine if anti-ROR1 antibodies bind to human ROR1 on different or approximate binding epitopes, the ForteBio Octet® RED96e platform was used to perform epitope competition experiments on the anti-ROR1 antibodies. Human ROR1 protein (Acrobiosystems, #RO1-H522y) was biotinylated and then captured onto SA biosensors (ForteBio, #18-5020) to reach loading level of 0.3-0.4 nm. The in-tandem competition assay format was applied and it contains two association steps. Firstly, the antigen-loaded biosensors bind to each antibody (a.k.a, First antibody, 1st Ab) with a saturating concentration of 200 nM for 180 seconds to reach equilibrium and then secondly bind to the competing antibodies (a.k.a, Second antibody, 2nd Ab) of 200 nM for 180 seconds. The second binding signals were recorded as the 100% signal of each antibody when the first antibodies were replaced by kinetics buffer. All the binding data were analyzed using ForteBio Data Analysis 11.0 software. The inhibition rate is calculated by the following formula: […]

[4] = molecular target: T1, Human ROR1-ECD-his (Acro Biosystems …); experiment: BLI in-tandem competition; competitor: PR303189
Text: as §1

[5] = molecular target: T1, Human ROR1-ECD-his (Acro Biosystems …); experiment: BLI in-tandem competition; competitor: PR000374
Text: as §1

[6] = molecular target: T2, cynomolgus ROR1 on CHO-K1-cynoROR1 cells (cynomolgus monkey, UniProt A0A2K5WTX7 30-937); experiment: flow cytometry on CHOK1-cynoROR1 cells, MFI (Mean) [bottom panel, letter not given]
T2 construct: whole, on cells
Experimental: (§2) Binding of recombinant anti-ROR1 antibodies to human or cynomolgus ROR1-overexpressing cells was tested by flow cytometry. In this example, ROR1-expressing cell lines are HEK293T cell lines that had been transfected to express human ROR1 on the surface (HEK293T-hu ROR1, KYINNO BIOTECHNOLOGY CO., LTD, Catalog #KC-1018), CHO-K1 cell lines that had been transfected to express cynomolgus ROR1 (CHOK1-cyno ROR1), PANC-1 (ATCC, catalog: CRL-1469) or A549 cell lines (Shanghai Institute of Biochemistry and Cell Biology, Chinese Academy of Sciences).
(§3) In brief, anti-ROR1 antibodies were serially diluted in staining buffer (PBS containing 2% FBS). Antibody solution was incubated with 1×10⁵ cells at 4° C. for 1 hour. […] After 1-hour incubation at 4° C., cells were washed twice with staining buffer and subjected to flow cytometry. PR000374 (Bench marker 1) and non-relevant IgG isotype control (Crownbio) were used as positive and negative controls, respectively.

[7] = molecular target: T3, human ROR1 on cells (HEK293T-hROR1, PANC-1, A549) (human, UniProt Q01973 30-937); experiment: flow cytometry on A549 cells, MFI (Mean)
T3 construct: whole, on cells; one molecule for the three cell lines; also called huROR1; cell surface ROR1
T3 sequence (Q01973 30-937): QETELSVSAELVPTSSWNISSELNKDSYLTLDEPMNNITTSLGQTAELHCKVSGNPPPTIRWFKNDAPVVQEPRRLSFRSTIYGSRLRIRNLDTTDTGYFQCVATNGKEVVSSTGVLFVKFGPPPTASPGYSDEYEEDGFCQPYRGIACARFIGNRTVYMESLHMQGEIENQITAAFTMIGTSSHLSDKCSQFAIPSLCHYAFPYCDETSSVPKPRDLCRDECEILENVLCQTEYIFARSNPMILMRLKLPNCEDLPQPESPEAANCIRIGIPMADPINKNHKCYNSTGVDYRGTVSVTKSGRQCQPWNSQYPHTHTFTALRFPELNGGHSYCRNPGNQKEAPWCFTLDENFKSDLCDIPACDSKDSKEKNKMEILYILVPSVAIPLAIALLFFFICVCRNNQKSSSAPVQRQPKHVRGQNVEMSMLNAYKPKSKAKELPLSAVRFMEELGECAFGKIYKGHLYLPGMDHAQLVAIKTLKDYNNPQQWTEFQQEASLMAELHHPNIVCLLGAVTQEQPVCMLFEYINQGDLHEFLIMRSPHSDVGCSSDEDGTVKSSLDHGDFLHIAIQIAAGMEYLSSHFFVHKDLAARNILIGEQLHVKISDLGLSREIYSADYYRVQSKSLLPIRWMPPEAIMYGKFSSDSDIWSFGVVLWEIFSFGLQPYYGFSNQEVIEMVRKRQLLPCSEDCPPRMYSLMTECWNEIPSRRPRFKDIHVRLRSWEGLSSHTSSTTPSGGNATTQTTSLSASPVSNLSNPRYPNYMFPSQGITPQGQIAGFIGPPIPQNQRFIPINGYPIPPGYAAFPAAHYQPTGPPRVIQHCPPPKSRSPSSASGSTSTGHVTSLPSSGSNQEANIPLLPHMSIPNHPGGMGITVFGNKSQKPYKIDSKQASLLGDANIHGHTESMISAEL
Experimental: as §2, §3

[8] = molecular target: T2, cynomolgus ROR1 on CHO-K1-cynoROR1 cells; experiment: flow cytometry, CHO-K1-cynoROR1 cells
Experimental: as §3

[9] = molecular target: T2, cynomolgus ROR1 on CHO-K1-cynoROR1 cells; experiment: flow cytometry on CHOK1-cynoROR1 cells, MFI (APC-A Median) [middle panel, letter not given]
Experimental: as §2, §3

[10] = molecular target: T1, Human ROR1-ECD-his (Acro Biosystems …); experiment: BLI in-tandem, row = 1st Ab; competitor (2nd Ab): PR007424
Text: as §1

[11] = molecular target: T1, Human ROR1-ECD-his (Acro Biosystems …); experiment: BLI in-tandem, row = 1st Ab; competitor (2nd Ab): PR005340
Text: as §1

[12] = molecular target: T2, cynomolgus ROR1 on CHO-K1-cynoROR1 cells; experiment: flow cytometry on CHOK1-cynoROR1 cells, MFI (APC-A Median) [top panel]
Experimental: as §2, §3

Binder	EC50 (read off the curve) [1] [µg/mL]	Kd [2] [nM]	koff [2] [s⁻¹]	kon [2] [M⁻¹ s⁻¹]	Inhibition (%) [3] [%]	Inhibition (%) [4] [%]	Inhibition (%) [5] [%]	EC50 (read off the curve) [6] [µg/mL]	EC50 (read off the curve) [7] [µg/mL]	EC50 [8] [µg/mL]	MAX(MFI) [8] [MFI]	EC50 (read off the curve) [9] [nM]	Inhibition (%) [10] [%]	Inhibition (%) [11] [%]	EC50 (read off the curve) [12] [nM]
B1	~0.002	< 0.001	< 1e-07	165000	86	-24	-24	~0.2	~0.2	0.222	8.27e+06				
B2	~0.0007	0.0395	0.000115	2.9e+06	57	-99	-38	~0.03		0.03	9.24e+06				
B3	~0.0008				-63	-52	109	~0.3	~0.6	0.314	1.05e+07	~4	-8.53	-7.48	~5
